From the supplement of paper PMC9112550, “Optimization of the antimicrobial peptide Bac7 by deep mutational scanning” (BMC Biology, 2022)

System: Escherichia coli TOP10
Assay: shrunken log2 fold change of peptide-encoding DNA abundance (4.5 h post-induction vs induction); higher = less antimicrobial activity (less host growth inhibition)
Settings: time post-induction: 4.5 h; library: site-saturation at positions 5, 18, 19, 20
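Also: peptides expressed intracellularly from a pBAD plasmid library in pooled LB shake-flask culture, induced with 0.3% L-arabinose, DNA abundance read by NGS, three biological replicates, DESeq2 with apeglm shrinkage.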

Sequence | shrunken log2 fold change
RRIRPRPPRLPRPRPRPKDMPRP | -0.0163
RRIRTRPPRLPRPRPRPHHSPRP | -0.133
RRIRTRPPRLPRPRPRPCDWPRP | -0.0538
RRIRQRPPRLPRPRPRPPPLPRP | 0.977
RRIRHRPPRLPRPRPRPWYLPRP | -0.748
RRIRYRPPRLPRPRPRPAAFPRP | -0.757
RRIRVRPPRLPRPRPRPWSPPRP | -0.00502
RRIRFRPPRLPRPRPRPQVTPRP | -0.367
RRIRMRPPRLPRPRPRPFAKPRP | 0.3
RRIRCRPPRLPRPRPRPFNHPRP | -0.427
RRIRIRPPRLPRPRPRPKKPPRP | 0.0487
RRIRVRPPRLPRPRPRPIKYPRP | -0.169
RRIRQRPPRLPRPRPRPYVHPRP | -0.258
RRIRNRPPRLPRPRPRPYNAPRP | -1.54
RRIRARPPRLPRPRPRPPWLPRP | 0.495
RRIRDRPPRLPRPRPRPHKVPRP | -0.0568
RRIRHRPPRLPRPRPRPDKDPRP | -0.44
RRIRIRPPRLPRPRPRPELAPRP | 0.254
RRIRLRPPRLPRPRPRPLCSPRP | -0.223
RRIRHRPPRLPRPRPRPAAEPRP | 0.334
RRIRLRPPRLPRPRPRPTQSPRP | 0.144
RRIRSRPPRLPRPRPRPQLVPRP | 0.0331
RRIRRRPPRLPRPRPRPFGWPRP | 0.271
RRIRDRPPRLPRPRPRPIVDPRP | -0.000946
RRIRYRPPRLPRPRPRPEMSPRP | -0.343

Sequence | shrunken log2 fold change
RRIRMRPPRLPRPRPRPSDWPRP | 0.998
RRIRERPPRLPRPRPRPLINPRP | -0.512
RRIRTRPPRLPRPRPRPQIFPRP | -0.716
RRIRPRPPRLPRPRPRPRPMPRP | 0.513
RRIRWRPPRLPRPRPRPIALPRP | 0.0387
RRIRNRPPRLPRPRPRPIIWPRP | -0.139
RRIRMRPPRLPRPRPRPCITPRP | 0.156
RRIRHRPPRLPRPRPRPPTPPRP | 0.518
RRIRPRPPRLPRPRPRPECVPRP | 0.541
RRIRERPPRLPRPRPRPSVPPRP | -0.235
RRIRPRPPRLPRPRPRPFLNPRP | -0.622
RRIRSRPPRLPRPRPRPVFRPRP | -0.113
RRIRLRPPRLPRPRPRPMMHPRP | 0.0259
RRIRDRPPRLPRPRPRPGFIPRP | -0.202
RRIRDRPPRLPRPRPRPMRRPRP | 0.363
RRIRIRPPRLPRPRPRPTDEPRP | 0.125
RRIRMRPPRLPRPRPRPGELPRP | -0.0122
RRIRHRPPRLPRPRPRPLEPPRP | -0.55
RRIRLRPPRLPRPRPRPRFTPRP | 0.0165
RRIRTRPPRLPRPRPRPKFNPRP | -0.375
RRIRPRPPRLPRPRPRPDPDPRP | -0.0832
RRIRTRPPRLPRPRPRPLVMPRP | -0.0423
RRIRTRPPRLPRPRPRPQPFPRP | 0.0325
RRIRYRPPRLPRPRPRPGPVPRP | -0.16
RRIRGRPPRLPRPRPRPRWAPRP | 0.702

Sequence | shrunken log2 fold change
RRIRQRPPRLPRPRPRPHQYPRP | -0.237
RRIRFRPPRLPRPRPRPMKFPRP | -0.681
RRIRARPPRLPRPRPRPQPLPRP | 0.209
RRIRRRPPRLPRPRPRPNCIPRP | 0.104
RRIRCRPPRLPRPRPRPFAVPRP | -0.169
RRIRDRPPRLPRPRPRPMMQPRP | 0.0408
RRIRCRPPRLPRPRPRPNLMPRP | -0.323
RRIRSRPPRLPRPRPRPAVKPRP | -0.177
RRIRGRPPRLPRPRPRPRRLPRP | 0.502
RRIRQRPPRLPRPRPRPFVWPRP | 0.049
RRIRLRPPRLPRPRPRPTYRPRP | -0.266
RRIRQRPPRLPRPRPRPENQPRP | 0.128
RRIRQRPPRLPRPRPRPYKGPRP | -0.0872
RRIRCRPPRLPRPRPRPWAWPRP | -0.105
RRIRHRPPRLPRPRPRPFVQPRP | -0.14
RRIRFRPPRLPRPRPRPTIEPRP | -0.037
RRIRWRPPRLPRPRPRPCWQPRP | -0.0167
RRIRHRPPRLPRPRPRPCAGPRP | -0.195
RRIRFRPPRLPRPRPRPSTDPRP | -0.667
RRIRIRPPRLPRPRPRPTQTPRP | 0.0595
RRIRGRPPRLPRPRPRPPNSPRP | 0.301
RRIRARPPRLPRPRPRPWKWPRP | -0.163
RRIRHRPPRLPRPRPRPDPAPRP | 0.189
RRIRTRPPRLPRPRPRPVTRPRP | 0.229
RRIRMRPPRLPRPRPRPWMRPRP | 0.7
